In patent US20060239990:

Target: GST-Stat3 fusion protein (UniProt P42227)
Sequence (P42227 whole entry, the tested form may be a part): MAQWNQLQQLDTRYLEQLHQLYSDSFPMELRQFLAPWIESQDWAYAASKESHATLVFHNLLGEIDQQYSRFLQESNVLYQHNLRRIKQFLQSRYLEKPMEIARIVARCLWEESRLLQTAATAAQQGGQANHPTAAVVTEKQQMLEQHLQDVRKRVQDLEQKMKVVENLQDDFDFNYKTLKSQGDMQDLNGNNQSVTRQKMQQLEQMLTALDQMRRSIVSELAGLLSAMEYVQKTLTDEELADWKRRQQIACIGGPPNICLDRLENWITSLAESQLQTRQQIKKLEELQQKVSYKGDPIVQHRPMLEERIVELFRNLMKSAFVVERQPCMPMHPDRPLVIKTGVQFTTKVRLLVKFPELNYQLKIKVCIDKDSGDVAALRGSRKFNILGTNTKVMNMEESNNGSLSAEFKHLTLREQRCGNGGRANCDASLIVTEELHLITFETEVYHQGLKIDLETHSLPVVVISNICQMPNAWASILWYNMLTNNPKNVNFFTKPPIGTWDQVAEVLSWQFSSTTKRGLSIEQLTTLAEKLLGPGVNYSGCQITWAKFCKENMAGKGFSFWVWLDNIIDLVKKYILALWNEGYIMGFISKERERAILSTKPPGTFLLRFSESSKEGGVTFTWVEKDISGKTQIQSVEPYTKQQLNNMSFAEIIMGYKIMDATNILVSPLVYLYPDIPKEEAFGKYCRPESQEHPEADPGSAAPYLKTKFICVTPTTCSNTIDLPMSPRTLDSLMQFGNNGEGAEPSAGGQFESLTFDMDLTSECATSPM

Substance: mutated mouse PRMT2-Flag lacking functional Ado-Met domain (alanine for 145-GCGTG-149)
- in vitro methylation with [3H]-AdoMet: transfection of neither vector alone nor mutated PRMT2-Flag cDNA induced methylation of GST-Stat3 (FIG. 20A, lanes 4 and 5)
